Laboratory results: patent US20140248684A1, “COMPOSITIONS AND METHODS FOR THE PRODUCTION AND USE OF HUMAN CHOLINESTERASES” (priority 2011, published 2014)
Entries after “also recorded” stand apart in the source; their conditions may differ. Like-named read-outs stand apart in the source and are kept apart here.

How the values were obtained:
[1] = tested on: guinea pigs; experiment: Succinylcholine lethality in guinea pigs; format: in vivo; conditions: intravenous
Text: To further understand the effect and kinetics of BChE-mediated SC detoxification using continuous vital sign monitoring, the inventors moved to a larger rodent model of SC toxicity. […] At no point following loss of measurable pulse and venous oxygen saturation did these signs return in animals receiving SC 0.9% saline.

[2] = tested on: mice; conditions: mice (Lewis, 1996); cited from earlier work
[3] = previously published (Lockridge, 1990), thioester analog assay, cited from earlier work
[4] = reported value (Sun et al., 2002); read-out: KM, cocaine hydrolysis; cited from earlier work
[5] = tested on: SC-induced apnea; experiment: Reversal of succinylcholine-induced apnea in mice; format: in vivo, Male FVB/N mice (Mus musculus)
Description: Mouse experiments were conducted as follows. Male FVB/N mice (Mus musculus, 8-12 weeks old) were anesthetized by injection of ketamine/xylazine/acepromazide cocktail at the dose of 0.05 mL per 25 g of total body weight (concentrations were, respectively 21 mg/mL, 2.4 mg/mL, and 0.3 mg/mL). Anesthetized mice were assessed for respiratory rate by counting respirations for 30 seconds using a Littman model 3000 electronic stethoscope placed on the mouse left mid axillary line and extrapolating the per minute rate. Mice were then injected intravenously (tail vein) with 1 mg/kg succinylcholine (time 0 min). At time+3 min mice were injected with pBChE (0.6 mg/kg, ˜15 Upper animal) in 0.9% saline (or 0.9% saline vehicle control) and respiratory rate was obtained as above at the indicated time points. At time+15 minutes all surviving mice were euthanized by CO2 asphyxiation and subsequent cervical dislocation. At no time during the experiment did the mice receive any other therapy including, but not limited to, airway protection/management, artificial ventilations, compressions, or any pharmacological assistance.
Statistical analyses were carried out using the GraphPad Prism software. Log-rank (Mantel-Cox) test was used to determine significance of the difference between survival curves.

[6] = Succinylcholine hydrolase activity assay (96-well, choline oxidase/peroxidase); format: biochemical
Description: Assay of butyrylcholine hydrolysis followed the method of Ellman as described in (Geyer et al., 2010). Succinylcholine hydrolase activity was monitored by the method of George and co-workers (George et al., 1988) with modifications to fit a 96-well plate format. Briefly, our standard succinylcholine-hydrolysis buffer contained 100 mM NaH2PO4/Na2HPO4 buffer pH 7.5, 0.77 mM phenol, 0.15 mM 4-aminoantipyrine, 1 U/mL choline oxidase, and 1.2 U/mL horse raddish peroxidase type I. Appropriate volumes of 10× stock solutions (in 100 mM NaH2PO4/Na2HPO4 buffer pH 7.5) were pre-mixed and dispensed at 160 μL aliquotes onto 96-well plates followed by addition of the substrate succinylcholine chloride (20 μl, final concentrations as indicated). Reactions were started by addition of pBChE (4.74 nM) to yield a final well volume of 200 μl. Hydrolysis was monitored by recording absorbance changes at 500 nm. Self hydrolysis rates were measured on samples that contained no enzyme and were subtracted from the enzymatically catalyzed reaction rates. A choline standard curve was similarly created by using the same assay except that choline chloride replaced succinylcholine (final concentration range of 10-100 μM).
Kinetic analysis was done according to Radic et al. (Radic et al., 1993) as follows. Initial enzyme velocity, V0, was plotted as a function of substrate concentration and the results were fitted by nonlinear regression using GraphPad Prism to the following equation: […]
where [SC] is the concentration of SC, Vmax is maximal velocity, KM is the Michaelis-Menten constant, KSS is the dissociation constant of substrate from the enzyme's peripheral binding site, and b a factor that reflect the efficiency of hydrolysis of the substrate in the presence of another substrate molecule bound at the peripheral site (with substrate activation when b>1).

[7] = tested on: SC-induced apnea; experiment: Reversal of succinylcholine-induced apnea in guinea pigs; format: in vivo, Male Hartley guinea pigs (Cavia porcellus)
Description: Guinea pig experiments were conducted as follows. Male Hartley guinea pigs (Cavia porcellus, 8 weeks old) were anesthetized with 90 mg/kg ketamine and 10 mg/kg xylazine. Once anesthetized, baseline heart rate (beats per minute) and Sp02 (%) were obtained using a Surgivet Plus Veterinary Anesthesia and Monitoring Module, model #V3404. Guinea pigs were then injected intravenously (leg vein) with 0.334 mg/kg SC (time 0). Heart rate and Sp02 were obtained every minute throughout the course of the experiment. At time+1 min, groups of three apneic guinea pigs were injected with either pBChE (0.19 mg/kg, ˜48 Upper animal) in 0.9% saline (or 0.9% saline vehicle control). At time+15 minutes all surviving guinea pigs were euthanized by CO2 asphyxiation and subsequent cervical dislocation. As above, guinea pigs received no additional care or therapy during experimentation.
Statistical significance of differences between means of heart rate and Sp02 was tested using 1-way analysis of variance (ANOVA) followed by Bonferronits Multiple Comparison Test.

[8] = 0.334 mg/kg SC i.v., 48 U BChE at 1 min, 3 min following SC injection

For `C[N+](C)(C)CCOC(=O)CCC(=O)OCC[N+](C)(C)C` [SC, succinylcholine], the LD100 [1] is listed as 0.334 mg/kg and the LD50 [2] is listed as 0.28 mg/kg.

B1: WT BChE (protein, UniProt P06276 29-602, looked up)
Cholinesterase: EDDIIIATKNGKVRGMNLTVFGGTVTAFLGIPYAQPPLGRLRFKKPQSLTKWSDIWNATKYANSCCQNIDQSFPGFHGSEMWNPNTDLSEDCLYLNVWIPAPKPKNATVLIWIYGGGFQTGTSSLHVYDGKFLARVERVIVVSMNYRVGALGFLALPGNPEAPGNMGLFDQQLALQWVQKNIAAFGGNPKSVTLFGESAGAASVSLHLLSPGSHSLFTRAILQSGSFNAPWAVTSLYEARNRTLNLAKLTGCSRENETEIIKCLRNKDPQEILLNEAFVVPYGTPLSVNFGPTVDGDFLTDMPDILLELGQFKKTQILVGVNKDEGTAFLVYGAPGFSKDNNSIITRKEFQEGLKIFFPGVSEFGKESILFHYTDWVDDQRPENYREALGDVVGDYNFICPALEFTKKFSEWGNNAFFYYFEHRSSKLPWPEWMGVMHGYEIEFVFGLPLERRDNYTKAEEILSRSIVKRWANFAKYGNPNETQNNSTSWPVFKSTEQKYLTLNTESTRIMTKLRAQQCRFWTSFFPKVLEMTGNIDEAEWEWKAGFHRWNNYMMDWKNQFNDYTSKKESCVGL
In the case of B1, the “Kcat, succinylcholine” value [3] is listed as 10 s⁻¹, the Km ([3]; read-out: KM, succinylcholine) is listed as 35 µM and the Km [4] is listed as 4.5 µM.

B2: pBChE (protein, UniProt P06276 29-602, looked up)
Cholinesterase: EDDIIIATKNGKVRGMNLTVFGGTVTAFLGIPYAQPPLGRLRFKKPQSLTKWSDIWNATKYANSCCQNIDQSFPGFHGSEMWNPNTDLSEDCLYLNVWIPAPKPKNATVLIWIYGGGFQTGTSSLHVYDGKFLARVERVIVVSMNYRVGALGFLALPGNPEAPGNMGLFDQQLALQWVQKNIAAFGGNPKSVTLFGESAGAASVSLHLLSPGSHSLFTRAILQSGSFNAPWAVTSLYEARNRTLNLAKLTGCSRENETEIIKCLRNKDPQEILLNEAFVVPYGTPLSVNFGPTVDGDFLTDMPDILLELGQFKKTQILVGVNKDEGTAFLVYGAPGFSKDNNSIITRKEFQEGLKIFFPGVSEFGKESILFHYTDWVDDQRPENYREALGDVVGDYNFICPALEFTKKFSEWGNNAFFYYFEHRSSKLPWPEWMGVMHGYEIEFVFGLPLERRDNYTKAEEILSRSIVKRWANFAKYGNPNETQNNSTSWPVFKSTEQKYLTLNTESTRIMTKLRAQQCRFWTSFFPKVLEMTGNIDEAEWEWKAGFHRWNNYMMDWKNQFNDYTSKKESCVGL
In the case of B2, the survival ([5]; 1 mg/kg SC i.v., 15 U (0.6 mg/kg) pBChE at 3 min, three mice) is reported as “survived; also recorded: survival of all pBChE-treated mice”, the “protection from SC-induced apnea” value ([5]; respiration rate monitored, FIG. 19) is reported as “protects mice from SC-induced apnea” and the “turnover number Kcat=Vmax/[BChE]T, succinylcholine hydrolysis” value ([6]; [BChE]=4.74 nM) is reported as 8.6 ± 0.55 s⁻¹. For the same molecule, the “Vmax, succinylcholine hydrolysis” value ([6]; [BChE]=4.74 nM, ±SEM, nonlinear regression) was 2.45 ± 0.16 µM/min, the “Kss (dissociation constant of substrate from peripheral binding site)” value ([6]; ±SEM, nonlinear regression) was 2.0 ± 0.3 mM and the Km ([6]; ±SEM, nonlinear regression, read-out: KM, succinylcholine hydrolysis) was 57 ± 7 µM. The “b (substrate activation factor)” value ([6]; ±SEM, substrate activation when b>1) was 2.9±0.1, the heart rate [7, 8] was “at baseline” and the spontaneous respirations [7, 8] was “return of spontaneous respirations”. The venous oxygenation [7, 8] was 49%, the heart rate response ([7]; 0.334 mg/kg SC i.v., 48 U BChE at 1 min, 5 min post SC injection) was “post-anoxic tachycardia” and the “time by which all vital signs had returned to baseline” value ([7]; 0.334 mg/kg SC i.v., 48 U BChE at 1 min, time post SC injection) was no more than 7 min. The “protection from high-dose SC-induced apnea” value ([7]; high-dose SC, FIG. 21) was “fully protects” and the “return of normal vital signs” value ([7]; sublethal doses of SC, FIG. 20) was “promotes return of normal vital signs”.
